Source: patent US7053041B1, “Methods and compositions useful for inhibition of αvβ5mediated angiogenesis” (The Scripps Research Institute, priority 1996, dated 2006)
[ ]: non-standard residue; d: D form.

How the values were obtained:
integrin αvβ3 = integrin αvβ3 (Homo sapiens, UniProt P05106+P06756); conditions: cited from earlier work
[1] = tested on: angiogenesis induced by PMA; experiment: chick CAM assay, PMA-induced angiogenesis; assay type: in vivo; conditions: PMA 20 ng/ml; antibodies 75 μg per embryo, calphostin C 100 nM
Description: (§1) The above growth factors (cytokines), including bFGF and VEGF, were separately applied at a concentration of 1.0 μg/ml to the 10 day old CAM model as previously described. PMA was used at a concentration of 20 ng/ml.
(§2) After 24 hours after growth factor treatment, the antibodies, LM609 and P1F6, or the protein kinase C (PKC) inhibitor, calphostin C, were separately provided to the CAM model, either by a single intravascular dose as described above or by topical administration as described below in the next example. For intravascular injections over the next 3 day consecutive period, the antibodies were used at a concentration of 75 μg per embryo and the calphostin C was at a dosage of 100 nM.
(§3) On day 13, filter discs and associated CAM tissue were dissected and analyzed for angiogenesis with a stereo microscope. Angiogenesis was scored in a double blind manner by analyzing the number and extent of branching of the blood vessels within the area of the discs. The scores ranged from low (1) to high (4). The angiogenesis index was determined by subtracting a background score of 1 from all data. Experiments were repeated 2–4 times with 5–6 embryos per condition.

[2] = tested on: TNF-α mediated angiogenesis; experiment: chick CAM assay, TNF-α-induced angiogenesis; assay type: in vivo; conditions: TNF-α 1.0 μg/ml; antibodies 75 μg per embryo, calphostin C 100 nM
Description: as §1, §2, §3

CS-1 melanoma tumors = experiment: CS-1 melanoma tumor growth on chick embryo CAM, intravenous mAbs; assay type: in vivo; conditions: 100 to 300 μg mAb once intravenously; 7 days
Description: Angiogenesis is induced in the CAM assay system by direct apposition of a tumor fragment on the CAM. Preparation of the chick embryo CAM is identical to the procedure described above. Instead of a filter paper disk, a 50 milligram (mg) to 55 mg in weight fragment of one αvβ5-negative tumor resulting from growth of cell line suspensions described below, is placed on the CAM in an area originally devoid of blood vessels.
In one embodiment, hamster melanoma cells, CS-1, obtained from Dr. Caroline Damsky from University of California at San Francisco, were used in the CAM assay as described above for formation of melanoma tumors. Following the transfer of approximately a 50 mg CS-1 tumor fragment on a new 10 day chick embryo CAM, separate preparations received an intravenous injections of either 100 μg or 300 μg of P1F6 antibody, LM609 antibody or control CSAT (anti-β1) antibody. An additional control included a preparation that received no treatment. The results are discussed below in Example 6D.
Tumor-induced blood vessels prepared above were also treated with mAbs applied by intravenous injection. […] After this time period, the tumors were resected and analyzed by their weight to determine the effect of antibody exposure on tumor growth or suppression.

Chain of integrin αvβ3 (P06756 31-889 limits assumed): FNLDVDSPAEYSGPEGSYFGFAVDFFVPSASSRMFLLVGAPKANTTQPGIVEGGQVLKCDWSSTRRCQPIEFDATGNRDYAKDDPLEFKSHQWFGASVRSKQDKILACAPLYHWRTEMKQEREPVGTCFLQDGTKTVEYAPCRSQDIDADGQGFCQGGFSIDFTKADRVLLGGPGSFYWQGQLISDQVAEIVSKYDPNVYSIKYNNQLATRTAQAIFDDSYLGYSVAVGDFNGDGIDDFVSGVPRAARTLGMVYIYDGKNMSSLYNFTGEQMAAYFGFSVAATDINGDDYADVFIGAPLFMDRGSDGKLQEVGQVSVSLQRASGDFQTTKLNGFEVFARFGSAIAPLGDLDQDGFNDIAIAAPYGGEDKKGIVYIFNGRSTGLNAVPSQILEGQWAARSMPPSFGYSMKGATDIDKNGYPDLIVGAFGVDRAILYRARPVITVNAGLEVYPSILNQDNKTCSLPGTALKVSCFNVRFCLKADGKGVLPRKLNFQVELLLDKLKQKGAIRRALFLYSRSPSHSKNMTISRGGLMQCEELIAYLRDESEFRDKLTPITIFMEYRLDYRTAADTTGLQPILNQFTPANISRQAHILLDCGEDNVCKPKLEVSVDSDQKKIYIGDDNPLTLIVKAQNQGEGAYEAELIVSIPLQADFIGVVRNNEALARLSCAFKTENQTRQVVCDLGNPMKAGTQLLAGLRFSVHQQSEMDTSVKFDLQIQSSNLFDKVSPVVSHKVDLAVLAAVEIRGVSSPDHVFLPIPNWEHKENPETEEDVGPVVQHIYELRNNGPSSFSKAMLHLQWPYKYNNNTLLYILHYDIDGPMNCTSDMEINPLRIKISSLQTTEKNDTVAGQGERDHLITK
Chain of integrin αvβ3 (P06756 891-1048 partner limits assumed): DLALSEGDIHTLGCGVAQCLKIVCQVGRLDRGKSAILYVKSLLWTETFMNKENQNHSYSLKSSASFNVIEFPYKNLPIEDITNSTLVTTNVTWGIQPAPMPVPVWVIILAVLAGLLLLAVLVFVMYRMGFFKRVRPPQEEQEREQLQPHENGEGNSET
Chain of integrin αvβ3 (P05106 27-788): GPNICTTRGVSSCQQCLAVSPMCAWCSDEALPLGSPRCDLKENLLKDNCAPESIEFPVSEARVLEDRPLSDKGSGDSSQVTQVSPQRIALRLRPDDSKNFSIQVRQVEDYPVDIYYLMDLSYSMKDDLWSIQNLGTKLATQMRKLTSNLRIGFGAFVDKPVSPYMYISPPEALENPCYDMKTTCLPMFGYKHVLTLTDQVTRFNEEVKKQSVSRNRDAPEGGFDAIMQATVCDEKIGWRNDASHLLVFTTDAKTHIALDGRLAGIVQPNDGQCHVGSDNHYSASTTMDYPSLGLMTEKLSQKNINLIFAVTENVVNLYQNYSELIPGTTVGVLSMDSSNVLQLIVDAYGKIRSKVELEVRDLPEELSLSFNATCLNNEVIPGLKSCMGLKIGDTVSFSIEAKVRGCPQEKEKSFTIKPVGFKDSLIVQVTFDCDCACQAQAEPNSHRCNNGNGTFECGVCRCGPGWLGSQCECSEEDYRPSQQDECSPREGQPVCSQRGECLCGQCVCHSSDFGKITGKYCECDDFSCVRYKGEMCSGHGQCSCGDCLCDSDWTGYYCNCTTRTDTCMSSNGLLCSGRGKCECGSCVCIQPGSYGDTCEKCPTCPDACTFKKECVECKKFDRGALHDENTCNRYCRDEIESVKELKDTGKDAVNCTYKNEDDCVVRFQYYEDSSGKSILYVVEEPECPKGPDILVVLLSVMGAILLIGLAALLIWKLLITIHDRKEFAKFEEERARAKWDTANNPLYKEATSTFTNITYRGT

cyclo(Arg-Ala-Asp-D-Phe-Val) (cyclo(RAD[dF]V); SMILES CC(C)[C@@H]1NC(=O)[C@@H](Cc2ccccc2)NC(=O)[C@H](CC(=O)O)NC(=O)[C@H](C)NC(=O)[C@H](CCCNC(=N)N)NC1=O) [peptide 69601, reference compound]
inhibition of binding of fibrinogen to integrin αvβ3 (integrin αvβ3): inhibiting binding

B1: LM609: mouse monoclonal antibody, anti-αvβ3 (antibody, V domains shown)
VH: EVQLEESGGGLVKPGGSLKLSCAASGFAFSSYDMSWVRQIPEKRLEWVAKVSSGGGSTYYLDTVQGRFTISRDNAKNTLYLQMSSLNSEDTAMYYCARHNYGSFAYWGQGTLVTVSA
VL: ELVMTQTPATLSVTPGDSVSLSCRASQSISNHLHWYQQKSHESPRLLIKYASQSISGIPSRFSGSGSGTDFTLSINSVETEDFGMYFCQQSNSWPHTFGGGTKLEIKRA
effect on CAM angiogenesis induced by PMA (angiogenesis index) [1]: failed to do so | effect on CAM angiogenesis in response to TNF-α (angiogenesis index) [2]: blocked angiogenesis | inhibition of CS-1 tumor growth (CS-1 melanoma tumors): also inhibited tumor growth, however, less effective than that with P1F6
